In patent publication US10011657B2, “Anti-CS1 antibodies and antibody drug conjugates” (AbbVie Biotherapeutics Inc., priority 2014, dated 2018):

Assays:
HuCS1 = target: T1, HuCS1 (Homo sapiens, UniProt Q9NQ25); assay: Flow-cytometry competition assay with AF488-labeled Luc34.3.8 on L-363 cells; format: binding; settings: 20 μg/mL test antibody, 2 μg/mL labeled Luc34.3.8
T1 construct: L-363 cells (human multiple myeloma cell line) expressing HuCS1; endogenous in cells; host or cells: L-363 human multiple myeloma cell line
Protocol: A similar experiment was conducted with AF488-labeled Luc34.3.8 at 2 μg/mL. L-363 cells (human multiple myeloma cell line) expressing HuCS1 (300,000 cells per data point) was incubated for 30 min (on ice) with a tenfold excess of unlabeled test antibody (20 μg/mL). After the incubation, 2 μg/mL of AF488-labeled Luc34.3.8 was added to the cells and incubated on ice for 30 minutes. After this incubation, the cells were washed with PBS+1% FBS, and binding of AF488-labeled […] determined by flow cytometry.

human CS1 [1] = target: T2, human CS1 (Homo sapiens, UniProt Q9NQ25); assay: Flow-cytometry competition assay with AF488-labeled elotuzumab; format: binding; settings: 293s cells transfected with human CS1; 100 μg/mL test antibody, 10 μg/mL labeled elotuzumab
T2 construct: expressed in transfected cells; host or cells: 293s cells
Protocol: A similar experiment was conducted with AF488-labeled elotuzumab at 10 μg/mL. Transfected 293s cells (300,000 cells per data point) were incubated for 30 min (on ice) with a tenfold excess of unlabeled antibody (100 μg/mL). After the incubation, 10 μg/mL of AF488-labeled elotuzumab was added to the cells and incubated on ice for 30 minutes. After this incubation, the cells were washed with PBS+1% FBS and binding of AF488-labeled elotuzumab determined by flow cytometry.

human CS1 [2] = target: T2, human CS1; assay: Flow-cytometry competition assay with AF488-labeled Hu34C3; format: binding; settings: 293s cells transfected with human CS1; 100 μg/mL test antibody, 10 μg/mL labeled Hu34C3
Protocol: For the competition assays, transfected 293s cells (300,000 cells per data point) were incubated for 30 min (on ice) with a tenfold excess of unlabeled test antibody (100 μg/mL).

human CS1 [3] = target: T2, human CS1; assay: Flow-cytometry competition assay with AF488-labeled PDL241 (humanized antibodies, Example 5); format: binding; settings: 293s cells transfected with human CS1; 50 μg/mL test antibody, 5 μg/mL labeled PDL241
Protocol: 293s cells transfected with human CS1 were incubated at various concentrations with an AF488 labeled PDL241 antibody. […] Transfected 293s cells (300,000 cells per data point) were incubated for 30 min (on ice) with a tenfold excess of unlabeled test antibody (50 μg/mL). After the incubation, 5 μg/mL of AF488-labeled PDL241 was added to the cells and incubated on ice for 30 minutes. After this incubation, the cells were washed with PBS+1% FBS and binding of AF488-labeled PDL241 was determine by flow cytometry.

[4] = tested on: relapsed or refractory multiple myeloma; settings: elotuzumab added to lenalidomide and dexamethasone vs lenalidomide and dexamethasone control group; cited from earlier work

T2 sequence (Q9NQ25 23-335): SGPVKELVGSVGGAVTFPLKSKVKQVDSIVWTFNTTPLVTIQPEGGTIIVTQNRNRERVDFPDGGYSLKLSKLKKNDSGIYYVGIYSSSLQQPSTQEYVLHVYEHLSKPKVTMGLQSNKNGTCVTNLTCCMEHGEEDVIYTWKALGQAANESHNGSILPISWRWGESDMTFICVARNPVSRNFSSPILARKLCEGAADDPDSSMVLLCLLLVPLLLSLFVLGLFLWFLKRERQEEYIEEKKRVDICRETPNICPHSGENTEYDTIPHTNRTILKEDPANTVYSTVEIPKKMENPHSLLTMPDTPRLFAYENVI
T1 sequence (Q9NQ25 23-335): as above

| Molecule | Competition with AF488-labeled Luc34.3.8 for binding (HuCS1) | Competition with AF488-labeled elotuzumab for binding (human CS1 [1]) | Competition with AF488-labeled Hu34C3 for binding (human CS1 [2]) | Competition with AF488-labeled PDL241 for binding (human CS1 [3]) | Relative reduction in the risk of disease progression or death [4] [%] |
| --- | --- | --- | --- | --- | --- |
| Hu31D2: humanized anti-CS1 antibody, VH SEQ ID NO: 16, VL SEQ ID NO: 19 (antibody, V domains shown) VH: EVQLVESGGGLVQPGGSLRLSCAASGFTFSDYYMAWVRQAPGKGLEWVADINYDGGSTYYLDSLKSRFTISRDNAKNSLYLQMNSLRAEDTAVYYCARDRGYYFDYWGQGTLVTVSS VL: DVVMTQSPLSLPVTPGEPASISCRSSQSLVHSNGNTYLHWYLQKPGQSPQLLIYKVSNRFSGVPDRFSGSGSGTDFTLKISRVEAEDVGVYFCSQSTHVPPFTFGGGTKVEIK | do not compete with, and bind different epitopes than, Luc34.3.8 | do not compete with, and bind different epitopes than, elotuzumab | None of the anti-CS1 antibodies tested (including Hu27A12 and Hu31D2) compete with Hu34C3 | do not compete with, and bind different epitopes than, PDL241 | – |
| Elotuzumab: monoclonal humanized IgG1 anti-CS1 antibody disclosed as HuLuc63 in U.S. Pat. No. 7,709,610 (antibody, V domains shown) VH: EVQLVESGGGLVQPGGSLRLSCAASGFDFSRYWMSWVRQAPGKGLEWIGEINPDSSTINYAPSLKDKFIISRDNAKNSLYLQMNSLRAEDTAVYYCARPDGNYWYFDVWGQGTLVTVSS VL: DIQMTQSPSSLSASVGDRVTITCKASQDVGIAVAWYQQKPGKVPKLLIYWASTRHTGVPDRFSGSGSGTDFTLTISSLQPEDVATYYCQQYSSYPYTFGQGTKVEIKR | – | – | – | – | 30 |
